Test results: publication PMC5735850 (The Plant journal : for cell and molecular biology, 2017)
Positions count from the first letter of the chain named. In names and notes the source's numbering stands.

B1: AtFUT1 (Arabidopsis thaliana; Q452A) (protein)
chain: GVFPNVTNINSDKLLGGLLASGFDEDSCLSRYQSVHYRKPSPYKPSSYLISKLRNYEKLHKRCGPGTESYKKALKQLDQEHIDGDGECKYVVWISFSGLGNRILSLASVFLYALLTDRVLLVDRGKDMDDLFCEPFLGMSWLLPLDFPMTDQFDGLNQESSRCYGYMVKNQVIDTEGTLSHLYLHLVHDYGDHDKMFFCEGDQTFIGKVPWLIVKTDNYFVPSLWLIPGFDDELNKLFPQKATVFHHLGRYLFHPTNQVWGLVTRYYEAYLSHADEKIGIQVRVFDEDPGPFQHVMDQISSCTQKEKLLPEVDTLVERSRHVNTPKHKAVLVTSLNAGYAENLKSMYWEYPTSTGEIIGVHQPSQEGYAQTEKKMHNGKALAEMYLLSLTDNLVTSAWSTFGYVAQGLGGLKPWILYRPENRTTPDPSCGRAMSMEPCFHSPPFYDCKAKTGIDTGTLVPHVRHCEDISWGLKLV
B2: AtFUT1 (Arabidopsis thaliana; D550A) (protein)
chain: B1 chain with A369Q, D467A
B3: AtFUT1 (Arabidopsis thaliana; Y486F) (protein)
chain: B1 chain with A369Q, Y403F
B4: AtFUT1 (Arabidopsis thaliana; H523A) (protein)
chain: B1 chain with A369Q, H440A
B5: AtFUT1 (Arabidopsis thaliana) (protein)
chain: B1 chain with A369Q
B6: AtFUT1 (Arabidopsis thaliana; D300A) (protein)
chain: B1 chain with D217A, A369Q

What was measured:
AtFUT1 = molecular target: T1, AtFUT1 (Arabidopsis thaliana, UniProt Q9SWH5); assay: real-time 1H NMR of fucosylation; format: biochemical; details: 0.4 mM XLLG, 0.4 mM GDP-Fuc, 4.7 μM enzyme, pH 6.8 in D2O, 25°C
T1 sequence (Q9SWH5 84-558 limits assumed): B1 chain with A369Q

[1] = substrate: C[C@@H]1O[C@H](OP(=O)(O)OP(=O)(O)OC[C@H]2O[C@@H](n3cnc4c(=O)[nH]c(N)nc43)[C@H](O)[C@@H]2O)[C@@H](O)[C@H](O)[C@@H]1O; assay: GDP-Glo luminescent GDP release, Michaelis-Menten fit; format: biochemical, Arabidopsis thaliana; details: donor varied, 750 μM XXLG, 75 mM HEPES pH 6.8, 28°C

Row | Molecule | real-time 1H NMR of fucosylation (AtFUT1) | Km [1] | kcat [1] [s⁻¹]
1 | OC[C@H]1O[C@@H](O[C@H]2[C@@H](OC[C@H]3O[C@@H](O[C@H]4[C@H](O)[C@@H](O)[C@H](O[C@H]5[C@H](O)[C@@H](O)C(O)O[C@@H]5CO)O[C@@H]4CO[C@H]4OC[C@@H](O)[C@H](O)[C@H]4O[C@@H]4O[C@H](CO)[C@H](O)[C@H](O)[C@H]4O)[C@H](O)[C@@H](O)[C@@H]3O[C@@H]3O[C@H](CO[C@H]4OC[C@@H](O)[C@H](O)[C@H]4O)[C@@H](O)[C@H](O)[C@H]3O)OC[C@@H](O)[C@@H]2O)[C@H](O)[C@@H](O)[C@H]1O (stereo partly shown) [XLLG] | The xyloglucan oligosaccharide XLLG (Figure 1a), composed of nine glycosyl residues | – | –
2 | B1 | – | 61.77 (±10.5) μM | 0.00533 ± 0.000283
3 | B2 | – | 55.33 (±6.7) μM | 0.00343 ± 0.000167
4 | B3 | – | 60.44 (±12.3) μM | 0.0016 ± 0.0001
5 | B4 | – | 84.28 (±18.3) μM | 0.00123 ± 8.33e-05
6 | B5 | – | 25.32 (±4.2) μM | 0.0633 ± 0.000833
7 | B6 | – | 40.1 (±7.5) μM | 0.00532 ± 0.000267
